The values that follow are results of earlier work, collected in article PMC3137898.

The data set has as its target syntrophin PDZ (Mus musculus) (UniProt Q61234).

syntrophin PDZ (Mus musculus), sequence (Q61234 78-167): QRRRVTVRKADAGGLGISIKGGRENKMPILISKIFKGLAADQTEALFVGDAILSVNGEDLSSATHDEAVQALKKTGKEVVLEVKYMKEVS
neuronal nitric oxide synthase PDZ, sequence (P29476 14-102): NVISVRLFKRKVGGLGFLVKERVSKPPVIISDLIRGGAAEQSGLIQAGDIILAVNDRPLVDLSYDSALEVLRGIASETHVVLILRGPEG

For orientation: Kd means the constant that tells how readily two partners part at equilibrium. Consider “neuronal nitric oxide synthase PDZ (from UniProt P29476)”, for which the Kd is 600 nM.
